Reference: US11278600B2, “Human alpha-galactosidase variants” (Codexis, Inc., priority 2014, dated 2022)

Legend:
Format in all cases: biochemical
[1] = HTP-analysis of yeast culture supernatants, no challenge (MUGal hydrolysis); details: activity of the variant/activity of Rd4BB (SEQ ID NO: 15)
How it was run: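 GLA variants expressed in yeast INVSc1, secreted into SD-Ura broth over 66-84 h at 30° C; clarified supernatants tested without challenge. Supernatant mixed with McIlvaine buffer pH 4.8 and 2 mM MUGal (citrate/KCl, pH 4.6), 37° C for 30-180 min, carbonate-quenched, fluorescence Ex 355/Em 448 nm.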

[2] = HTP-analysis of supernatants pretreated with base (MUGal hydrolysis); details: activity of the variant/activity of Rd4BB (SEQ ID NO: 15); challenge at pH 9.65
How it was run: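 Supernatants from INVSc1 yeast expressing GLA variants (SD-Ura, 66-84 h, 30° C) were mixed with McIlvaine buffer pH 7.0-8.2 or 200 mM sodium bicarbonate pH 9.1-9.7 and held 1-18 h at 37° C. Residual activity was then measured on MUGal at pH 4.8/4.3, 37° C, 30-180 min, by fluorescence (Ex 355/Em 448 nm).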

[3] = HTP-analysis of supernatants pretreated with acid (MUGal hydrolysis); details: activity of the variant/activity of Rd4BB (SEQ ID NO: 15); challenge at pH 3.7
How it was run: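 MUGal hydrolysis was tracked by fluorescence (Ex 355 nm, Em 448 nm) after a 30-180 min reaction at 37° C. in pH 4.8 McIlvaine/citrate buffer, stopped with 1 M sodium carbonate. Beforehand, yeast (INVSc1) culture supernatants carrying GLA variants were held 1-3 h at 37° C. in acidic McIlvaine buffer, pH 3.3-4.3.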

Molecule | Relative Activity of GLA Variants After No Challenge (NC) [1] | Relative Activity of GLA Variants After Challenge at pH 9.65 [2] | Relative Activity of GLA Variants After Challenge at pH 3.7 [3]
462 (protein, Synthetic Polypeptide sequence of Variant No. 462 of mature Human GLA) LDNGLARTPTMGWLHWERFMCNLDCQEEPDSCISEKLFMEMAERMVSEGWKDAGYEYLCIDDCWMAPQRDSEGRLQADPQRFPHGIRQLANYVHSKGLKLGIYADVGNKTCAGFPGSFGYYDIDAQTFADWGVDLLKFDGCYCDSLENLADGYKHMSLALNRTGRSIVYSCEWPLYMWPFQKPNYTEIRQYCNHWRNFADIDDSWKSIKSILDWTSRNQERIVDVAGPGGWNDPDMLVIGNFGLSWDQQVTQMALWAIMAAPLFMSNDLRHISPQAKALLQDKDVIAINQDPLGKQGYQLRKGDNFEVWERPLSGDAWAVAIINRQEIGGPRSYTIPVASLGKGVACNPACFITQLLPVKRQLGFYNWTSRLKSHINPTGTVLLLLENTMQMSLKDLL | + (0.5 to 1.5 relative activity over Rd4BB (SEQ ID NO: 15)) | + (0.5 to 1.5 relative activity over Rd4BB (SEQ ID NO: 15)) | + (0.5 to 1.5 relative activity over Rd4BB (SEQ ID NO: 15))
463 (protein, Synthetic Polypeptide sequence of Variant No. 463 of mature Human GLA) LDNGLARTPTMGWLHWERFMCNLDCQEEPDSCISEKLFMEMAERMVSEGWKDAGYEYLCIDDCWMAPQRDSEGRLQADPQRFPHGIRQLANYVHSKGLKLGIYADVGNKTCAGFPGSFGYYDIDAQTFADWGVDLLKFDGCYCDSLENLADGYKHMSLALNRTGRSIVYSCEWPLYMWPFQKPNYTEIRQYCNHWRNFADIDDSWKSIKSILDWTSRNQERIVDVAGPGGWNDPDMLVIGNFGLSWDQQVTQMALWAIMAAPLFMSNDLRHISPQAKALLQDKDVIAINQDPLGKQGYQLRKGDNFEVWERPLSGDAWAVAIINRQEIGGPRSYTIPVASLGKGVACNPACFITQLLPVKRQLGFYNWTSRLKSHINPTGTVLLQLENTTQMSLKDLL | + (0.5 to 1.5 relative activity over Rd4BB (SEQ ID NO: 15)) | + (0.5 to 1.5 relative activity over Rd4BB (SEQ ID NO: 15)) | + (0.5 to 1.5 relative activity over Rd4BB (SEQ ID NO: 15))
468 (protein, Synthetic Polypeptide sequence of Variant No. 468 of mature Human GLA) LDNGLARTPTMGWLHWERFMCNLDCQEEPDSCISEKLFMEMAERMVSEGWKDAGYEYLCIDDCWMAPQRDSEGRLQADPQRFPHGIRQLANYVHSKGLKLGIYADVGNKTCAGFPGSFGYYDIDAQTFADWGVDLLKFDGCYCDSLENLADGYKHMSLALNRTGRSIVYSCEWPLYMWPFQKPNYTEIRQYCNHWRNFADIDDSWKSIKSILDWTSRNQERIVDVAGPGGWNDPDMLVIGNFGLSWDQQVTQMALWAIMAAPLFMSNDLRHISPQAKALLQDKDVIAINQDPLGKQGYQLRKGDNFEVWERPLSGDAWAVAIINRQEIGGPRSYTIPVASLGKGVACNPACFITQLLPVKRQLGFYNWTSRLKSHINPTGTVLLQLENQMQMSLKDLL | + (0.5 to 1.5 relative activity over Rd4BB (SEQ ID NO: 15)) | + (0.5 to 1.5 relative activity over Rd4BB (SEQ ID NO: 15)) | + (0.5 to 1.5 relative activity over Rd4BB (SEQ ID NO: 15))
466 (protein, Synthetic Polypeptide sequence of Variant No. 466 of mature Human GLA) LDNGLARTPTMGWLHWERFMCNLDCQEEPDSCISEKLFMEMAERMVSEGWKDAGYEYLCIDDCWMAPQRDSEGRLQADPQRFPHGIRQLANYVHSKGLKLGIYADVGNKTCAGFPGSFGYYDIDAQTFADWGVDLLKFDGCYCDSLENLADGYKHMSLALNRTGRSIVYSCEWPLYMWPFQKPNYTEIRQYCNHWRNFADIDDSWKSIKSILDWTSRNQERIVDVAGPGGWNDPDMLVIGNFGLSWDQQVTQMALWAIMAAPLFMSNDLRHISPQAKALLQDKDVIAINQDPLGKQGYQLRKGDNFEVWERPLSGDAWAVAIINRQEIGGPRSYTIPVASLGKGVACNPACFITQLLPVKRQLGFYNWTSRLKSHINPTGTVLLQLENTMQESLKDLL | + (0.5 to 1.5 relative activity over Rd4BB (SEQ ID NO: 15)) | + (0.5 to 1.5 relative activity over Rd4BB (SEQ ID NO: 15)) | + (0.5 to 1.5 relative activity over Rd4BB (SEQ ID NO: 15))
469 (protein, Synthetic Polypeptide sequence of Variant No. 469 of mature Human GLA) LDNGLARTPTMGWLHWERFMCNLDCQEEPDSCISEKLFMEMAERMVSEGWKDAGYEYLCIDDCWMAPQRDSEGRLQADPQRFPHGIRQLANYVHSKGLKLGIYADVGNKTCAGFPGSFGYYDIDAQTFADWGVDLLKFDGCYCDSLENLADGYKHMSLALNRTGRSIVYSCEWPLYMWPFQKPNYTEIRQYCNHWRNFADIDDSWKSIKSILDWTSRNQERIVDVAGPGGWNDPDMLVIGNFGLSWDQQVTQMALWAIMAAPLFMSNDLRHISPQAKALLQDKDVIAINQDPLGKQGYQLRKGDNFEVWERPLSGDAWAVAIINRQEIGGPRSYTIPVASLGKGVACNPACFITQLLPVKRQLGFYNWTSRLKSHINPTGTVLLILENTMQMSLKDLL | + (0.5 to 1.5 relative activity over Rd4BB (SEQ ID NO: 15)) | + (0.5 to 1.5 relative activity over Rd4BB (SEQ ID NO: 15)) | + (0.5 to 1.5 relative activity over Rd4BB (SEQ ID NO: 15))
465 (protein, Synthetic Polypeptide sequence of Variant No. 465 of mature Human GLA) LDNGLARTPTMGWLHWERFMCNLDCQEEPDSCISEKLFMEMAERMVSEGWKDAGYEYLCIDDCWMAPQRDSEGRLQADPQRFPHGIRQLANYVHSKGLKLGIYADVGNKTCAGFPGSFGYYDIDAQTFADWGVDLLKFDGCYCDSLENLADGYKHMSLALNRTGRSIVYSCEWPLYMWPFQKPNYTEIRQYCNHWRNFADIDDSWKSIKSILDWTSRNQERIVDVAGPGGWNDPDMLVIGNFGLSWDQQVTQMALWAIMAAPLFMSNDLRHISPQAKALLQDKDVIAINQDPLGKQGYQLRKGDNFEVWERPLSGDAWAVAIINRQEIGGPRSYTIPVASLGKGVACNPACFITQLLPVKRQLGFYNWTSRLKSHINPTGTVLLQLENTQQMSLKDLL | + (0.5 to 1.5 relative activity over Rd4BB (SEQ ID NO: 15)) | + (0.5 to 1.5 relative activity over Rd4BB (SEQ ID NO: 15)) | + (0.5 to 1.5 relative activity over Rd4BB (SEQ ID NO: 15))
368 (protein, Synthetic Polypeptide sequence of Variant No. 368 of mature Human GLA) LDNGLARTPTMGWLHWERFMCNLDCQEEPDSCISEKLFMEMAEAMVSEGWKDAGYEYLCIDDCWMAPQRDSEGRLQADPQRFPHGIRQLANYVHSKGLKLGIYADVGNKTCAGFPGSFGYYDIDAQTFADWGVDLLKFDGCYCDSLENLADGYKHMSLALNRTGRSIVYSCEWPLYMWPFQKPNYTEIRQYCNHWRNFADIDDSWKSIKSILDWTSRNQERIVDVAGPGGWNDPDMLVIGNFGLSWDQQVTQMALWAIMAAPLFMSNDLRHISPQAKALLQDKDVIAINQDPLGKQGYQLRKGDNFEVWERPLSGDAWAVAIINRQEIGGPRSYTIPVASLGKGVACNPACFITQLLPVKRQLGFYNWTSRLKSHINPTGTVLLQLENTMQMSLKDLL | + (0.5 to 1.5 relative activity over Rd4BB (SEQ ID NO: 15)) | + (0.5 to 1.5 relative activity over Rd4BB (SEQ ID NO: 15)) | + (0.5 to 1.5 relative activity over Rd4BB (SEQ ID NO: 15))
467 (protein, Synthetic Polypeptide sequence of Variant No. 467 of mature Human GLA) LDNGLARTPTMGWLHWERFMCNLDCQEEPDSCISEKLFMEMAERMVSEGWKDAGYEYLCIDDCWMAPQRDSEGRLQADPQRFPHGIRQLANYVHSKGLKLGIYADVGNKTCAGFPGSFGYYDIDAQTFADWGVDLLKFDGCYCDSLENLADGYKHMSLALNRTGRSIVYSCEWPLYMWPFQKPNYTEIRQYCNHWRNFADIDDSWKSIKSILDWTSRNQERIVDVAGPGGWNDPDMLVIGNFGLSWDQQVTQMALWAIMAAPLFMSNDLRHISPQAKALLQDKDVIAINQDPLGKQGYQLRKGDNFEVWERPLSGDAWAVAIINRQEIGGPRSYTIPVASLGKGVACNPACFITQLLPVKRQLGFYNWTSRLKSHINPTGTVLLQLENSMQMSLKDLL | + (0.5 to 1.5 relative activity over Rd4BB (SEQ ID NO: 15)) | + (0.5 to 1.5 relative activity over Rd4BB (SEQ ID NO: 15)) | + (0.5 to 1.5 relative activity over Rd4BB (SEQ ID NO: 15))
